Reference: the nanobody polyreactivity screen of Harvey et al. (2022)

Assay: yeast display, Sf9 membrane polyspecificity reagent, FACS + sequencing; frameworks hold sequencing errors
Summary of the method: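 Using colony PCR, genes from sorted yeast display clones were amplified, then sequenced on MiSeq at 2 × 250 and filtered by CDR length. The clones had been stained with 10% biotinylated, detergent-solubilized Sf9 membrane reagent for 1 hour at 4 °C and sorted by FACS into low and high (top ~1%) gates on anti-HA and streptavidin fluorescence. Polyreactivity labels come from the gate of origin.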

| Sequence | polyreactivity (PSR sort gate) |
| --- | --- |
| QVQLVESGGGLVQAGGSLRLSCAASGSTFESNAMRWYRQAPGKERELVAAISRGGNTYYADSVKGLFTISRDNAKYTVYLQMHSLKPEDTAVYYCNVDRGNPVPPSEYWGQGTKVTVSS | low polyreactivity |
| QVQLVESGGGLVQAGGSLRLSCAASGSTFESYDMGWYRQAPGKERELVAAIDWSGGITYYADSVKGRFTISRDNAKNTVYLQMNSLKPEDTAVYYCNAGPYWWYYGEDYWGQGTQVTVSS | low polyreactivity |
| QVQLVESGGGLVQAGGSLRLSCAASGSTFESYDMGWYRQAPGNERELVAAIDWSGGITYYADSVKGRFTISRDNAKNTVYLQMNSLKPEDTAVYYCNADWFVRYPKRVYWAEYDYWGQGTQVTVSS | low polyreactivity |
| QVQLVESGGGLVQAGGSLRLSCAASGSTFETNAMGWYRPAPGKERELVAAIRWSTGNTYYADSVKGRFTISRDNAKNTVYLQMNSLKPEDTEVYYCAAYKGKHYIEGYWGQGTQVTVSS | low polyreactivity |
| QVQLVESGGGLVQAGGSLRLSCAASGSTFETYAMGWYRQAPGKERELVAVITSDGSTNYADSVKGRFTISRDNAKNTVYLQMNSLKPEDTAVYYCNADYGFYVPGYPIYWIYEYWGQGTQVTVSS | low polyreactivity |
| QVQLVESGGGLVQAGGSLRLSCAASGSTFEVNAMGWYRQAPGKERELVATITRSGGSTYYADSVKGRFTISRDNAKNTVYLQMNSLKPEDTAVYYCNAMWELKWGQGTQVTVSS | low polyreactivity |
| QVQLVESGGGLVQAGGSLRLSCAASGSTFEVYTMGWYRQAAGKERELVADITWSGGNTYYADSVKGRFTISRDNAKNTVYLQMNSLKPEDTAVYYCAADYYHKTVYWYDYWGQGTQVTVSS | low polyreactivity |
| QVQLVESGGGLVQAGGSLRLSCAASGSTFEWYTMGWYRQAPGKERELVAAINGGGSTKYADSVKGRFTISRDNAKKTVYLQMNSLKPEDTAVYYCNLKYGMYWGQGTQVTVSS | high polyreactivity |
| QVQLVESGGGLVQAGGSLRLSCAASGSTFEYNAMGWYRQAPGKERELVASSTNYADSVKGRFTISRDNAKNTVYLQMNSLKPDDTEVYYCARDRYYTREWYWYRHDHWGQGTQVTVSS | low polyreactivity |
| QVQLVESGGGLVQAGGSLRLSCAASGSTFEYYAMGSYRQAPGKERELVATISIDGRTNYADSVKGRFTISRDNAKNTVYLQMNSLKPEDTAVYYCAARPYWRQRYDYWGQGTQVTVSS | low polyreactivity |
| QVQLVESGGGLVQAGGSLRLSCAASGSTFEYYAMGWYRQAPGKERELVAAITGSGDNTYYADSVKGRFTISRDNAKNTVYLQMNSLKPEDTAVYYCAATMRVKGQYGRMYYWGQGTQVTVSS | high polyreactivity |
| QVQLVESGGGLVQAGGSLRLSCAASGSTFEYYAMGWYRQAPGKERELVAAITRSGSRTRYADSVKGRFTISRDNAKNTVYLQMNSLKPEDTAVYYCARLSSARYPFDSWGQGTQVTVSS | high polyreactivity |
| QVQLVESGGGLVQAGGSLRLSCAASGSTFEYYAMVWYRQAAGKERELVDRINWSGGSTYYADSVKGRFTISRDNAKNTVYLQMNSLKPEDTAVYYCNRKLTRFTCFPLAYWGQGTQVTVSS | low polyreactivity |
| QVQLVESGGGLVQAGGSLRLSCAASGSTFFANVMGWYRQAPGKEREFVAAINYRTGSTHYSDSVKGRFTISRDNAKNTVYLQMNSLKPEDTAVYYCAVYYQYTDVYQYSGYSVRYDYWGQGTQVTVSS | low polyreactivity |
| QVQLVESGGGLVQAGGSLRLSCAASGSTFFDYAMGWYRQAPGKERELVAVISDGGTTTYADSVKGRFTISRDNAKNTVYLQMNSLKPEDTAVYYCAAENQDGLLVILGGYGYWGQGTQVTVSS | low polyreactivity |
| QVQLVESGGGLVQAGGSLRLSCAASGSTFFEYAMGWYRQAPGKVREFVAGISWSGGITYYADSVKGRFTISRDNAKNTVYLQMNSLKPEDTAVYYCATAGGDWYGVDYWGQGTQVTVSS | low polyreactivity |

| Sequence | polyreactivity (PSR sort gate) |
| --- | --- |
| QVQLVESGGGLVQAGGSLRLSCAASGSTFFEYTMGWYRQAPGKEREFVADIRGRDGSTSYADSVKGRFTISRDNAKNTVYLQMNSLKPEDTAVYYCNADVTRWTRSPWPYTYDYWGQGTQVTVSS | low polyreactivity |
| QVQLVESGGGLVQAGGSLRLSCAASGSTFFFNAMGWYRQAPGKERELVAAITGRSGSTYYADSVKGRFTISRDNAKNTVYIQMNSLKPEDTAVYYCAADYVFVATPLRYDYWGQGTQVTVSS | low polyreactivity |
| QVQLVESGGGLVQAGGSLRLSCAASGSTFFGNAMGWYIQAPGKERELVAAIRFSGVGTYYADSVKGRFTISRDNAKNTVYLQLNSLKPEYTEVFYCAAESYYKYYWGQGTQVTVSS | low polyreactivity |
| QVQLVESGGGLVQAGGSLRLSCAASGSTFFGNAMGWYRQAPGKERELVAAITTGSGRTYYADSVKGRFTISRDNAKNTVYLQMNSLKPEDTAVYYCAARFSERVYVVPFGYWGQGTQVTVSS | high polyreactivity |
| QVQLVESGGGLVQAGGSLRLSCAASGSTFFGNTMGWYRQAPGKERELVAAITYRGSTYYADSVKGRFTISRDNAKNTVYLQMNSLKPEDTAVYYCAADGRWYNSESEYDYWGQGTQVTVSS | low polyreactivity |
| QVQLVESGGGLVQAGGSLRLSCAASGSTFFHNAMGWYRQAPGKERELVAAINWNGGSTYYADSVKGRFTISRDNAKNTVYLQMNSLKPEDTAVYYCAADIYTYLGAYYIGYYWGQGTQVTVSS | low polyreactivity |
| QVQLVESGGGLVQAGGSLRLSCAASGSTFFHYVMGWYRQAPGKERELVAAIRWSGGRTRYADSVKGRFTISRDNAKNTVYLQMNSLKPEDTAVYYCAAYRLSKPFYKYDYWGQGTQVTVSS | high polyreactivity |
| QVQLVESGGGLVQAGGSLRLSCAASGSTFFLYAMGWYRQAPGKERELVAAISTTGGSTNYADSVKGRFTISRDNAKNTVYLQMNSLKPEDTAVYYCAAGPSAQSIYDHWGQGTQVTLSS | low polyreactivity |
| QVQLVESGGGLVQAGGSLRLSCAASGSTFFLYAMGWYRQAPGKERELVAAITYTDGDTYYADSVKGRFTISRDNAKNTVYLQMNSLKPEDTAVYYCAAYRFPYFPSIAYYYTYYSWGQGTQVTVSS | low polyreactivity |
| QVQLVESGGGLVQAGGSLRLSCAASGSTFFRNAMGWYRQAPGKERELVASITSGGNTKYADSVKGRFTISRDNAKNTVYLQMNSLKPEDTAVYYCAALFYHFARYSRLYNYWGQGTQVTVSS | low polyreactivity |
| QVQLVESGGGLVQAGGSLRLSCAASGSTFFRYAMGWNRQAPGKERELVATITGGGRTNYADSVKGRFTISRDNAKNTVYLQMNTLKPEDTAVYYCAAYGYVWALRLRYVTYYYWGQGTQVTVSS | high polyreactivity |
| QVQLVESGGGLVQAGGSLRLSCAASGSTFFSYAMGWYRQAPGKDRELVAAISNSGGTTYYADSVKGRFTISRDNAKNTVYLQMNSLKPEDTAVYYSATRARYVGGYKYNYWGQGTQVTVSS | high polyreactivity |
| QVQLVESGGGLVQAGGSLRLSCAASGSTFFSYAMGWYRQAPGKERELVAAISNTGGTHYADSVKGRFTISRDNAKNTVYLQMNSLKPEDTAVFYCAADGWYYIGPFSVYSSFTSDYWGQGTQLTVSS | low polyreactivity |
| QVQLVESGGGLVQAGGSLRLSCAASGSTFFTYAMGWYRQAPGKERELVAAITRGGSSYYADSVKGRFTISRDNAKNTVYLLMNSLKPEDTAVYDCAARVSYRYGYWGQGTQVTVSS | high polyreactivity |
| QVQLVESGGGLVQAGGSLRLSCAASGSTFFVNTMGWYRQAPGKERELVAAIRRRGGSTYYADSVKGRFTISRDNAKNTVYLQMNSLIPEDTAVYYCAADSYSRYYYWGQGTQVTVSS | high polyreactivity |
| QVQLVESGGGLVQAGGSLRLSCAASGSTFFVYAMGWYRQAPGKERELVATISSAASTYYADSVKGRFTISRDNAKNTVYLQMNSLKPEDTAVYYCAAGYFIRTRSRYRYDYWGQGTQVTVSS | high polyreactivity |
